{"source": "patent US20190256560A1", "about": "(INSTITUT PASTEUR, published 2019)", "molecular_target": "T1, Recombinant soluble Zika virus E ectodomain (ZIKV sE), strain H/PF/2013 (Zika virus, UniProt A0A024B7W1 291-694)", "T1 construct": "also called ZIKV sE dimer; recombinant ZIKV E protein", "T1 sequence (A0A024B7W1 291-694)": "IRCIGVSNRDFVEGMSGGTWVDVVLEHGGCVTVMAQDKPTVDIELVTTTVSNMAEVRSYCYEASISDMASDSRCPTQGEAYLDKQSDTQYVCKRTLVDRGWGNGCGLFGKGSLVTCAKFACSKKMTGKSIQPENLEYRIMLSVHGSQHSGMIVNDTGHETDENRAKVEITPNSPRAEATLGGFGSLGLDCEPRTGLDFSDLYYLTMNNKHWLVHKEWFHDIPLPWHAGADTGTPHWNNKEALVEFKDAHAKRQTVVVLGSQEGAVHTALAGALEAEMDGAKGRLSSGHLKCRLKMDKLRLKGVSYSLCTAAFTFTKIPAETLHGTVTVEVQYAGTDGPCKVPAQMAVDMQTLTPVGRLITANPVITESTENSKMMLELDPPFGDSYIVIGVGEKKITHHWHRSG", "experiment": "BLI (Octet), IgG on anti-human IgG Fc sensors, ZIKV sE dimer in solution", "data": [{"binder": "EDE2 A11, human recombinant IgG (antibody, V domains shown, Human IgG; also called IgG EDE2 A11) VH: EVQLVESGGGLVRPGGSLRLSCAASGFSYSNHWMHWVRQAPGKGLVWVSRINSDGSTRNYADFVKGRFTISRDNAENTLYLEMNSLTADDTAVYYCVRDGVRFYYDSTGYYPDSFFKYGMDVWGQGTTVTV VL: QSVLTQPVSVSGSPGQSITISCTGTSSNADTYNLVSWYQQRPGKAPKLMIYEGTKRPSGVSNRFSASKSATAASLTISGLQPEDEADYYCCSYATSRTLVFGGGTKLTVV", "values": [{"measurement": "binding result", "result": "binds"}]}]}
